Measured values as given in the supplement of paper PMC9876800.

System: peptide library, one residue held at a place counted from the S/T acceptor
Test: relative phosphorylation of the sub-library (ratio to the mean residue at this position); higher = residue favoured
Settings: human
Method in brief: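 Human or orthologue kinase constructs, purified and recombinant, were incubated under kinase-specific conditions in 384-well plates with biotinylated degenerate peptide sub-libraries. Each sub-library fixed one residue at one position around a central Ser/Thr. Incubations lasted 90 min with peptides at 50 μM and 50 μM ATP spiked with γ-32P-ATP, after which spots on streptavidin membranes were phosphorimaged and quantified by densitometry. Relative sub-library phosphorylation is a ratio to the mean residue at that position.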

Sequence of NUAK1, construct: Full length (O60285 whole entry, looked up): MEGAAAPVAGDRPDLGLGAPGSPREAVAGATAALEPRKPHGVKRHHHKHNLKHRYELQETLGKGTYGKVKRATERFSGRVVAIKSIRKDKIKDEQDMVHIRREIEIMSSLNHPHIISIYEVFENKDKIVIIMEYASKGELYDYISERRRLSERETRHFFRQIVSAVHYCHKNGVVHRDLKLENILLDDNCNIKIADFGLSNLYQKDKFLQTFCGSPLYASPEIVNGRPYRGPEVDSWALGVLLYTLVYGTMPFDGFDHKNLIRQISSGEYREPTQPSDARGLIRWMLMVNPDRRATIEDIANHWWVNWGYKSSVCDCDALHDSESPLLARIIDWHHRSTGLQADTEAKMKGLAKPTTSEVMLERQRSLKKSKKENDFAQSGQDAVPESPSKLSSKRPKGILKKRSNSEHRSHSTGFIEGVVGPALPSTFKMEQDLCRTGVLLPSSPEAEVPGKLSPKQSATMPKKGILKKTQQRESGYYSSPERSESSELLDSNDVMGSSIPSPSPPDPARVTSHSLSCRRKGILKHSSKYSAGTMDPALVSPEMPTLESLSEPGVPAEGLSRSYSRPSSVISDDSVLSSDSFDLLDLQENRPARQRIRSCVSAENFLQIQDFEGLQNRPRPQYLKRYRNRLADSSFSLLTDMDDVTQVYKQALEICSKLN
Sequence of CAMKK2, construct: Full length (Q96RR4 whole entry, looked up): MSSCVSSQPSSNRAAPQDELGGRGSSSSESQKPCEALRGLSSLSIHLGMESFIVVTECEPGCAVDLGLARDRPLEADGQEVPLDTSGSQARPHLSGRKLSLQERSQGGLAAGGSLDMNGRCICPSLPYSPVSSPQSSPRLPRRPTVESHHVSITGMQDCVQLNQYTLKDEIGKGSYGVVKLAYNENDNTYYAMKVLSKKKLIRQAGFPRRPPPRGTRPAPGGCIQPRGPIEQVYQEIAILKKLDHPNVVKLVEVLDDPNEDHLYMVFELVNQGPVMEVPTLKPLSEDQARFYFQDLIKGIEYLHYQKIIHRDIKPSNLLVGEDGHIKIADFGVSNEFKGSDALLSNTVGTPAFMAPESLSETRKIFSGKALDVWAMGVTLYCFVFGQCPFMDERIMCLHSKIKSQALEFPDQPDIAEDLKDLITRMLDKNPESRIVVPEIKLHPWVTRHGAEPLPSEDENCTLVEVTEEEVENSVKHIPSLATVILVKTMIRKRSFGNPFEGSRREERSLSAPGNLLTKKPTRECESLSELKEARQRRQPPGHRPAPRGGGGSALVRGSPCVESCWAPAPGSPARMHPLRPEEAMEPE
Sequence of DCLK1, construct: aa351-689 (O15075 351-689, looked up): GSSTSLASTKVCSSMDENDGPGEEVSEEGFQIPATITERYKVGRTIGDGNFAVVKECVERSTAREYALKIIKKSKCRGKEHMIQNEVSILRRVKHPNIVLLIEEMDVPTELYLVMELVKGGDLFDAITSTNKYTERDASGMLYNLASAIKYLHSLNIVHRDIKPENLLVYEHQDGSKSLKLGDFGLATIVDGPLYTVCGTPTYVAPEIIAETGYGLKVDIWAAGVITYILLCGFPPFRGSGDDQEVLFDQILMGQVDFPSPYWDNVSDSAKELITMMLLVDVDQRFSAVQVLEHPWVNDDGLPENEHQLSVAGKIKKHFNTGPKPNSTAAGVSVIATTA

DCLK1, construct: aa351-689 (from UniProt O15075)
relative phosphorylation
Settings	at +1	at +2	at +3	at +4	at -1	at -2	at -3	at -4	at -5
A fixed	0.741	1.04	0.876	0.928	0.957	1.35	0.773	1.13	1.09
D fixed	0.495	0.579	0.771	0.814	0.62	0.651	0.307	0.553	0.468
E fixed	0.508	0.36	0.817	0.761	0.362	1.5	0.386	0.912	0.452
F fixed	2.44	1.04	0.991	1.34	0.427	0.582	0.281	0.617	1.08
G fixed	0.765	0.962	1.25	1.11	1.72	1.45	0.704	1.09	1.07
H fixed	1.01	1.39	1.38	0.944	1.33	1.12	0.979	1.15	1.01
I fixed	0.485	1.08	0.571	0.972	0.277	0.315	0.133	0.462	0.759
K fixed	1.1	0.523	1.27	1.23	2.27	1.5	3.37	2.12	1.56
L fixed	0.774	1.3	0.952	1.03	0.745	0.499	0.245	0.659	1.02
M fixed	1.53	1.48	0.66	1.26	0.797	1.06	0.415	0.947	0.938
N fixed	1.11	0.719	0.988	0.871	1.07	1.12	0.568	0.909	0.716
P fixed	0.274	0.63	0.789	1.17	1.37	0.383	0.821	1.08	1.16
Q fixed	1.13	0.626	1.16	0.925	0.958	1.75	0.771	1.04	0.907
R fixed	1.22	0.52	1.46	1.05	2.01	1.78	6.04	1.92	1.68
V fixed	0.705	1.23	0.79	0.889	0.529	0.464	0.244	0.665	0.886
W fixed	1.34	1.59	1.32	0.929	0.528	0.685	0.475	0.876	1.36
Y fixed	1.38	1.94	0.953	0.781	1.03	0.785	0.486	0.861	0.832
pThr fixed	0.78	0.776	0.779	1.2	0.322	0.357	0.407	0.688	0.712
pTyr fixed	1.01	2.9	0.913	0.688	0.585	0.497	0.391	0.683	0.813

NUAK1, construct: Full length (from UniProt O60285)
relative phosphorylation
Settings	at +1	at +2	at +3	at +4	at -1	at -2	at -3	at -4	at -5
A fixed	0.726	0.749	0.566	0.716	1.14	1.47	0.552	1.04	0.835
D fixed	0.449	0.564	0.844	0.464	0.661	0.734	0.4	0.474	0.611
E fixed	0.545	0.312	0.418	0.359	0.488	0.532	0.397	0.867	0.436
F fixed	2.2	0.695	1.33	1.13	0.475	0.586	0.472	0.91	1.12
G fixed	0.839	1.15	0.566	0.81	1.27	0.931	0.454	0.673	0.609
H fixed	0.927	1.14	1.56	1.08	0.951	0.821	1.12	0.995	0.772
I fixed	0.559	1.16	0.888	1.76	0.261	0.557	0.322	0.792	2.04
K fixed	1.19	1.09	1.22	1.01	2.27	0.955	2.72	1.16	1.2
L fixed	0.666	1.19	0.907	2.45	0.613	0.489	0.395	1.12	2.08
M fixed	1.1	1.17	1.08	1.69	0.937	0.837	0.598	1.56	1.33
N fixed	1.2	1.52	1.53	0.786	1.58	4.11	0.691	0.776	0.631
P fixed	0.483	0.753	0.434	0.765	1.63	0.53	0.665	0.929	0.727
Q fixed	1.72	0.954	1	0.743	1.37	1.51	0.786	0.934	0.582
R fixed	1.25	1.7	0.909	0.617	1.6	0.926	6.15	1.41	1.24
V fixed	0.687	1.02	0.735	0.947	0.375	0.864	0.288	0.924	1.21
W fixed	0.935	0.929	1.58	0.809	0.571	0.583	0.521	1.54	0.775
Y fixed	1.51	0.889	1.42	0.869	0.822	0.554	0.468	0.891	0.802
pThr fixed	0.684	0.497	0.396	0.362	0.291	0.397	0.352	0.518	0.373
pTyr fixed	0.597	0.273	0.337	0.346	0.746	0.419	0.445	0.438	0.547

CAMKK2, construct: Full length (from UniProt Q96RR4)
relative phosphorylation
Settings	at +1	at +2	at +3	at +4	at -1	at -2	at -3	at -4	at -5
A fixed	1.16	0.999	0.931	0.783	1.27	0.476	1.17	0.993	1.31
D fixed	0.612	1.03	1.09	1.14	1.17	0.349	0.289	0.949	1.02
E fixed	0.647	0.701	0.995	0.774	1.24	0.313	0.317	0.905	0.843
F fixed	0.787	0.602	0.861	1.12	0.671	1.91	1.44	0.939	0.93
G fixed	0.848	1.24	1.36	1.09	0.731	0.434	0.846	1.11	1.29
H fixed	0.46	1.21	0.888	1.1	0.934	0.748	1.23	1.15	1.09
I fixed	1.27	0.734	0.702	0.589	0.46	0.558	0.672	0.481	0.529
K fixed	1.03	1.04	0.971	1.18	1.6	0.629	0.567	0.887	1.02
L fixed	1.1	0.786	0.783	0.953	0.974	2.57	0.981	0.762	0.561
M fixed	1.92	1.14	0.834	0.979	1.2	2.46	1.65	1.04	0.887
N fixed	1.02	1.4	1.22	0.991	1.15	0.594	0.66	0.95	0.917
P fixed	0.328	1.26	1.61	1.64	0.268	0.363	1.48	0.931	1.29
Q fixed	1.07	0.937	1.05	1.09	1.6	0.727	1.09	1.05	1.08
R fixed	1.18	1.32	1.04	0.852	1.65	0.885	0.856	1.11	1.21
V fixed	1.19	0.93	0.706	0.884	0.601	0.548	0.953	0.583	0.753
W fixed	1.22	0.742	0.971	0.981	0.693	0.873	1.48	1.79	1.25
Y fixed	1.18	0.927	0.988	0.861	0.786	2.56	1.32	1.37	1.02
pThr fixed	0.769	0.87	1.03	1.14	0.432	0.493	0.711	0.711	0.884
pTyr fixed	0.827	0.75	1.43	1.09	0.973	0.634	0.525	0.831	0.776
